Results as given in PMC11496107.

What was measured:
Gal4-NCoR (ID 1 + 2) = test: mammalian two-hybrid assay (luciferase reporter, HEK293 cells); settings: 20 h, parent: 100, read off a plot
co-repressor peptide = test: fluorescence polarisation; fluorescence anisotropy assay in vitro, receptor LBD with co-repressor peptide; conditions not shown (Supplementary Methods)

Substance “LXRα-VP16 (wild-type liver X receptor-α fused to VP16) mutant M346V [human] / Gal4-NCoR (ID 1 + 2) [not stated] chain 1 M346V” has a percent of parent (Gal4-NCoR (ID 1 + 2); GOF sub-panel, highest T0901317 (T09) dose plotted (rightmost point)) of 12 % WT and a percent of parent (Gal4-NCoR (ID 1 + 2); GOF sub-panel, untreated condition (leftmost point, plotted an order of magnitude below the lowest T09 dose)) of 65 % WT.
Work on “LXRα ligand-binding domain (LBD) p.M346V (domain or fragment)” yielded a fold reduction of affinity (against the wild-type LBD) (co-repressor peptide) of 2 fold.
Substance “LXRα-VP16 (wild-type liver X receptor-α fused to VP16) mutant L217P [human] / Gal4-NCoR (ID 1 + 2) [not stated] chain 1 L217P” has a percent of parent (Gal4-NCoR (ID 1 + 2); LOF sub-panel, highest T0901317 (T09) dose plotted (rightmost point)) of 100 % WT and a percent of parent (Gal4-NCoR (ID 1 + 2); LOF sub-panel, untreated condition (leftmost point, plotted an order of magnitude below the lowest T09 dose)) of 75 % WT.
